Assay [1] deals with T1, KV1.2 (Homo sapiens, UniProt P16389). The experiment in a line: whole-cell patch clamp (Hill fit of concentration-response).
Assay [2] has as its target KCa2.2 (Homo sapiens, UniProt Q9H2S1). The description is as above.
In assay [3] the target is KCa3.1 (Homo sapiens, UniProt O15554). Described as above.
Assay [4] deals with T1, KV1.2. The experiment in a line: whole-cell patch clamp (koff/kon block kinetics).

T1 sequence (P16389 whole entry): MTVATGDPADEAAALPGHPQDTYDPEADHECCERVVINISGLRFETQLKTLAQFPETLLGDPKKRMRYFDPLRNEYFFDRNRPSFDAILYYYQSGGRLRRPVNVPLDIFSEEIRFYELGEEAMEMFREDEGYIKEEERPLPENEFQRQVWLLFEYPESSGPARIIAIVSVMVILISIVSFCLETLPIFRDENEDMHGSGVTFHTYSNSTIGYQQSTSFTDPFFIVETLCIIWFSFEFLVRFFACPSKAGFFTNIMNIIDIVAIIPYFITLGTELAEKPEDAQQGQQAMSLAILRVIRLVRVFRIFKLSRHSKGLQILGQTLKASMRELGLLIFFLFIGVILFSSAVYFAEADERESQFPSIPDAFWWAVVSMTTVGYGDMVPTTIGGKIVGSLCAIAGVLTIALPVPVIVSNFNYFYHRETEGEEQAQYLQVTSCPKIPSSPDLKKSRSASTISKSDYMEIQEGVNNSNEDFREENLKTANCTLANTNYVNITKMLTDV
Chain of KCa3.1 (O15554 whole entry): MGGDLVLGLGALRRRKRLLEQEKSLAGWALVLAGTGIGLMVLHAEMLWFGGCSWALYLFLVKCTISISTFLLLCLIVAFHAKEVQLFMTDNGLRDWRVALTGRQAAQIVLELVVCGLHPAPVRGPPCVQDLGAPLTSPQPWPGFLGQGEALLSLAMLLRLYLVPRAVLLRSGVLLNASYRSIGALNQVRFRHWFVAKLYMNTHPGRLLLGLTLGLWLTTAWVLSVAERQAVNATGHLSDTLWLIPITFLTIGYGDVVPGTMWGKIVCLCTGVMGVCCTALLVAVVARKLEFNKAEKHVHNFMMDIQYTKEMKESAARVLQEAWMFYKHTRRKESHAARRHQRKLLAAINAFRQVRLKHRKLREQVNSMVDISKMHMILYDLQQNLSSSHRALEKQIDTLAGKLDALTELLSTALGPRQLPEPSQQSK
Chain of KCa2.2 (Q9H2S1 whole entry): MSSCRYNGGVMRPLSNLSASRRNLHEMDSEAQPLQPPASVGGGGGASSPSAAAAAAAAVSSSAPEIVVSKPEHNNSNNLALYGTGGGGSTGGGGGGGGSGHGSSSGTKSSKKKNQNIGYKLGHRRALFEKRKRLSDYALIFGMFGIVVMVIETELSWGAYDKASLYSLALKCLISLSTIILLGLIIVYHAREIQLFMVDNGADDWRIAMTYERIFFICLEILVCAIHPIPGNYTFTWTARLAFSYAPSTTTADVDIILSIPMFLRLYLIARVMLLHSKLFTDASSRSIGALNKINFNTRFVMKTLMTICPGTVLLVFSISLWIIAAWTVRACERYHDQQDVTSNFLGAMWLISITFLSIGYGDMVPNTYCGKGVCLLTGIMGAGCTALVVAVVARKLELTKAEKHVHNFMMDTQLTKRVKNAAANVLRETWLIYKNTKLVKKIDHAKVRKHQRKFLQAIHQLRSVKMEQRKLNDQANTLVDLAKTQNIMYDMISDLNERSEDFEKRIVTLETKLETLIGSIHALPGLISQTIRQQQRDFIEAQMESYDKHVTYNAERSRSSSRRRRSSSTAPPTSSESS

On to TFINHKCKSSSECLPACKAAIGRASGKCINSTCKCYY [Cm39 (α-KTx 4.8)], for which the Kd in assay [1] was 65 nM; in assay [2], 502 nM; in assay [3], 57.7 nM; in assay [4] it was 87.8 nM.

Values taken from paper PMC9866218 (2023).
